The assay addresses biotinylated soluble IA^b-p3K (mouse). Briefly: SPR.

For orientation: Kd means the free concentration of one partner at which half of the binding sites on the other are occupied at equilibrium, for simple one-to-one binding. A high value points to a looser complex. Turning to soluble YAe62 TCR, the dissociation constant Kd turned out to be 9 µM.

The values are drawn from publication PMC3160269.
